Results on two substances are retold here after patent US20050222009A1, “Dual phase - PNA conjugates for the delivery of PNA through the blood brain barrier” (priority 2003, published 2005).

The test system of the data set is PC12 cells. The data set can be described thus: Measurement of cellular toxicity by neutral red uptake. The class given is cell-based, rat. Conditions: 48 hours incubation (FIG. 2); compared with control PNA. On the procedure:
As an in vitro models for neurons and for BBB we used the human neuroblastoma NMB cell line the rat catecholaminergic cell line PC12 and the mice brain-derived endothelial cell line bEND. NMB cells were adapted to grow in Dulbecco modified Eagle medium (DMEM) with 10% Hyclone calf serum (Simantov et al., 1996). PC12 cells were grown in DMEM, 10% horse serum and 5% calf serum. bEND3 cells were grown in DMEM, %10 calf serum supplemented with 2 mM glutamine. Cells were maintained in a 10% CO2 humidified incubator at 37° C. Cells were routinely sub-cultured every four to five days. When cells (5×10^3) were plated in 96 wells, dishes were pretreated with poly-L-ornithine.
PC12 cells were incubated with PNA or peptide-PNA conjugates for 48 hours. At the end of the incubation, cell morphology was examined by light microscopy. Medium was replaced with medium containing neutral red. Neutral-red uptake was determined by spectrophotometer and was used as an index for cellular toxicity (FIG. 2).

For the substance “CHK6HC-TTT GCT CTT ACT CAT-HAIYPRH [KBP11]”, the “neutral red uptake to PC12 cells (index for cellular toxicity)” value is given as “no significant difference”. In the case of “CHK6HC-TTT GCT CTT ACT CAT-THRPPMWSPVWP [KBP10]” it was “no significant difference”.
